Experimental data from US20250250297A1, “CO-ASSEMBLED PEPTIDE GRANULES FOR INTRACELLULAR PROTEIN DELIVERY” (University of Florida Research Foundation, Incorporated, priority 2022, published 2025).
No end group written: not given here.

T1: mCATCH(-) peptide, Ac-EQEPEPEPEQE-Am
T1 construct: Proline residues replace the phenylalanine residues of CATCH(-); also called mutant of CATCH(-)
T1 peptide: Ac-EQEPEPEPEQE-NH2

B1: CATCH(+) peptide, Ac-QQKFKFKFKQQ-Am (peptide)
peptide: Ac-QQKFKFKFKQQ-NH2
notes: Synthetic cationic variant of Q11; also called CATCH(4+); CATCH (4+)
B2: CATCH(-) peptide, Ac-EQEFEFEFEQE-Am (peptide)
peptide: Ac-EQEFEFEFEQE-NH2
notes: Synthetic anionic variant of Q11; also called CATCH(6-); CATCH (6-)
B3: mCATCH(+) peptide, Ac-QQKPKPKPKQQ-Am (peptide)
peptide: Ac-QQKPKPKPKQQ-NH2
notes: Proline residues replace the phenylalanine residues of CATCH(+); also called mutant of CATCH(+)

Experiments:
[1] = aqueous media; cited from earlier work
[2] = system: cells; assay: Delivery of granules comprising three co-assembling peptides; FACS sorting and NanoLuciferase activity; format: cell-based; settings: for delivery into cells via granules of three co-assembling peptides: granules with CATCH(6+) and two distinct CATCH(6−) fusion peptides
Protocol: Therein, the ability of cells to take up granules comprising three co-assembling peptides (e.g., a CATCH(6+) and two distinct CATCH(6−) fusion peptides comprising different fluorescent or colorimetric markers) was tested. […] Subsequent fluorescent-activated cell sorting (FACS) procedures were used to sort GFP-positive cells.

[3] = Protein incorporation into macroscopic hydrogels (GFP retention under excess 1×PBS); format: physicochemical
Protocol: Macroscopic Hydrogel Formation. A 12 mM stock solution of CATCH(−) was prepared by dissolving dry peptide in 1×PBS and adjusting the pH to ˜7.6 with ammonium bicarbonate (Fisher). A 12 mM stock solution of CATCH(+) was prepared by dissolving dry peptide in 1×PBS and adjusting the pH to ˜7.2 with hydrochloric acid (0.5 N Fisher). CATCH peptide stock solutions were combined at a 1:1 (v/v) ratio in a 0.2 mL glass vial (Thermo), and the vial was gently swirled for 2 min until the hydrogel formed. The hydrogel was stained with red food coloring to aid visualization. Hydrogel images were recorded using a digital still camera.
Protein Incorporation into Macroscopic Hydrogels. […] Immediately after hydrogel formation, fluorescence was visualized by placing the glass vials on a SafeImager 2.0 transilluminator (Invitrogen) and recording images with a digital still camera. […] At various time points, fluorescence in the buffer supernatant was visualized by placing the glass vials on a SafeImager 2.0 transilluminator (Invitrogen) and recording images with a digital still camera. At the endpoint, buffer supernatant was carefully removed by decanting and fluorescence was visualized by placing the glass vials on a SafeImager 2.0 transilluminator (Invitrogen) and recording images with a digital still camera.

[4] = system: cells in vitro; assay: Granule uptake compared to cell-penetrating peptide (L17E and Pep-1) uptake; CATCH(6+) titration; cell count; format: cell-based
[5] = Granule formation with molar excess of positive peptide: effect of concentration, ion content and pH; format: physicochemical; settings: molar excess of CATCH(6+) relative to CATCH(6−)-GFP
Protocol: This example describes the effect on granule formation of using positive peptides in molar excess relative to negative peptides. Samples comprising molar excess of positive peptide (e.g., CATCH(6+)) relative to negative peptide (e.g., CATCH(6−)-GFP) were prepared and granule formation was measured after peptide co-assembly (see FIG. 61). […] Therein, the effect of sample ion content on granule formation was tested. Samples comprised 2 mM CATCH(6+) or CATCH(4+) and 30 μM CATCH(6−)-GFP.

[6] = molecular target: T1, mCATCH(-) peptide, Ac-EQEPEPEPEQE-Am; assay: ThT fluorimetry, equimolar mixture in 1x PBS
Protocol: (§1) Thioflavin T (ThT) Assay. A ThT stock solution containing 0.8 mg/mL of thioflavin T (Acros) in 1× phosphate-buffered saline (PBS) (137 mM NaCl, 2.7 mM KCl, 10 mM Na₂HPO₄ and 1.8 mM KH₂PO₄, pH 7.4) was filtered through a 0.22 μm syringe filter (Millex), and further diluted 1:10 with 1×PBS to create a working solution. Peptide samples were mixed with the ThT working solution at a 1:10 (v/v) ratio, added to a black 96-well plate (Corning), and analyzed with a Molecular Devices SpectraMax M3 spectrophotometer (excitation 450, emission 482 nm). All samples were run in triplicate, with the mean and standard deviation of these samples reported.

[7] = molecular target: the molecule itself; assay: TEM; circular dichroism also showed predominantly random coil when incubated alone
[8] = molecular target: B3; assay: ThT fluorimetry, equimolar mixture in 1x PBS
Protocol: as §1

[9] = molecular target: T1, mCATCH(-) peptide, Ac-EQEPEPEPEQE-Am; assay: ThT fluorimetry, kinetic analysis

For “Ac-QQKFQFQFEQQ-Am (Ac-QQKFQFQFEQQ-NH2) [Q11]”, the “concentration at which peptide self-assembles into β-sheet nanofibers” value [1] is given as ~10 µM.

For “CATCH(6−)-NanoLuciferase: CATCH(6−) fusion with NanoLuciferase (EQEFEFEFEQE; not fully specified (C-terminus); also: fusion with NanoLuciferase, not in chain)”, the “NanoLuciferase activity in sorted GFP-positive cells” value ([2]; after FACS, granules with CATCH(6−)-GFP and CATCH(6−)-NanoLuciferase) was “high levels” and the “delivery into cells via granules of three co-assembling peptides” value (“delivery into cells via granules” for short) [2] was “successfully delivered into cells”.

In the case of “CATCH(6−)-mRuby: CATCH(6−) fusion peptide with fluorescent marker mRuby (EQEFEFEFEQE; not fully specified (C-terminus); also: fusion with mRuby, not in chain)”, the “delivery into cells via granules” value [2] is reported as “delivered into cells”.

With “CATCH(−)GFP: recombinant fusion of CATCH(−) and superfolder green fluorescent protein (GFP)” the “fluorescence of CATCH hydrogels after incubation under volumetric excess of 1×PBS” value ([3]; 48 h, hydrogel from 12 mM CATCH(+) and CATCH(−)) was “retained their fluorescence”, the “GFP in the buffer layer over hydrogels” value ([3]; up to 48 h under excess 1×PBS) was “no GFP was detected” and the “delivery into cells via granules” value [2] was “delivered into cells”.

For KQKFKFKFKQK [CATCH(6+)], the “effect of titration of peptide concentration on number of transduced cells” value [4] was “enabled control on the number of transduced cells” and the “granule size by scanning electron microscopy at higher positive peptide concentrations” value [5] was “larger granules”.

B1: no binding [6]; no binding [7].

B2: no binding [8]; no binding [7].

B3: no binding [9].
